Measurements taken from the Immune Epitope Database (IEDB).

Legend:
HLA-A*02:16 = assay: IEDB peptide-MHC binding, purified MHC/competitive/fluorescence; filed as Kd, often an IC50 or EC50 that approximates it; ≥ and ≤ were set here for values at or beyond the usual limits of such assays
HLA-A*02:11 = assay: as above
HLA-B*39:01 = assay: as above
HLA-A*02:19 = assay: as above
HLA-A*69:01 = assay: as above
HLA-A*02:12 = assay: as above
HLA-A*02:01 [1] = assay: as above
HLA-A*02:02 = assay: IEDB peptide-MHC binding, purified MHC/competitive/radioactivity; filed as Kd, often an IC50 or EC50 that approximates it; ≥ and ≤ were set here for values at or beyond the usual limits of such assays; conditions: source organism: Human immunodeficiency virus type 1 (CLONE 12)
HLA-B*57:01 = assay: IEDB peptide-MHC binding, purified MHC/competitive/fluorescence; filed as Kd, often an IC50 or EC50 that approximates it; ≥ and ≤ were set here for values at or beyond the usual limits of such assays; conditions: source organism: Homo sapiens
HLA-B*18:01 = assay: as above; conditions: source organism: Homo sapiens
HLA-B*15:17 = assay: as above; conditions: source organism: Homo sapiens
HLA-A*68:02 = assay: as above; conditions: source organism: Homo sapiens
HLA-A*24:03 = assay: as above; conditions: source organism: Homo sapiens
HLA-B*15:01 [2] = assay: as above; conditions: source organism: Homo sapiens
HLA-B*46:01 = assay: as above; conditions: source organism: Homo sapiens
HLA-A*26:01 = assay: as above; conditions: source organism: Homo sapiens
HLA-B*27:03 = assay: as above; conditions: source organism: Homo sapiens
HLA-A*02:03 = assay: as above; conditions: source organism: Homo sapiens
HLA-A*03:01 [3] = assay: as above; conditions: source organism: Homo sapiens
HLA-A*02:01 [4] = assay: IEDB peptide-MHC binding, purified MHC/competitive/fluorescence; ≥ and ≤ were set here for values at or beyond the usual limits of such assays
HLA-B*15:01 [5] = assay: as above; conditions: source organism: Vaccinia virus WR
HLA-A*11:01 = assay: as above
HLA-A*03:01 [6] = assay: as above
[7] = source organism: Human immunodeficiency virus 1
[8] = source organism: Vaccinia virus WR
[9] = source organism: Zaire ebolavirus

Sequence AIIRILQQL has a Kd (HLA-A*02:16; [7]) of 0.00151 µM, a Kd (HLA-A*02:11; [7]) of 0.00021 µM and a Kd (HLA-B*39:01; [7]) of no less than 20 µM. For the same sequence, the Kd (HLA-A*02:19; [7]) was 0.116 µM, the Kd (HLA-A*69:01; [7]) was 0.578 µM and the Kd (HLA-A*02:12; [7]) was 0.011 µM. The Kd (HLA-A*02:01 [1]; [7]) was 0.0048 µM and the Kd (HLA-A*02:02) was 0.374 µM.

FWAWSVLRV was tested, and the Kd (HLA-B*57:01) was no less than 20 µM, the Kd (HLA-B*18:01) was no less than 20 µM and the Kd (HLA-A*02:16; source organism: Homo sapiens) was no less than 20 µM. The Kd (HLA-A*02:11; source organism: Homo sapiens) was no less than 20 µM, the Kd (HLA-B*39:01; source organism: Homo sapiens) was no less than 20 µM and the Kd (HLA-A*02:19; source organism: Homo sapiens) was no less than 20 µM. For the same sequence, the Kd (HLA-A*69:01; source organism: Homo sapiens) was no less than 20 µM, the Kd (HLA-B*15:17) was no less than 20 µM and the Kd (HLA-A*02:12; source organism: Homo sapiens) was no less than 20 µM. For the same sequence, the Kd (HLA-A*68:02) was no less than 20 µM, the Kd (HLA-A*02:01 [1]; source organism: Homo sapiens) was no less than 20 µM and the Kd (HLA-A*24:03) was no less than 20 µM. For the same sequence, the Kd (HLA-B*15:01 [2]) was no less than 20 µM, the Kd (HLA-B*46:01) was no less than 20 µM and the Kd (HLA-A*26:01) was no less than 20 µM. The Kd (HLA-B*27:03) was no less than 20 µM, the Kd (HLA-A*02:03) was no less than 20 µM and the Kd (HLA-A*03:01 [3]) was no less than 20 µM.

With ILNTIQFMH the IC50 (HLA-A*02:01 [4]; [8]) was 5.12 µM, the IC50 (HLA-B*15:01 [5]) was no less than 111 µM and the IC50 (HLA-A*11:01; [8]) was 2.68 µM. It also gave an IC50 (HLA-A*03:01 [6]; [8]) of 3.36 µM.

ITAASLPKT showed an IC50 (HLA-A*02:01 [4]; [9]) of 4.9 µM, an IC50 (HLA-A*11:01; [9]) of 2.9 µM and an IC50 (HLA-A*03:01 [6]; [9]) of 30.4 µM.
